Common to all, as to test: FRET or BRET
Background: In BRET a luciferase serves as donor, and the signal depends on an acceptor being close.

For experiment [1], the target named is A2AR-D2R heteromer (A2AR-Rluc with D2R-GFP2) (human) (UniProt P29274).
The target is the same in experiment [2]. This is another data set of the same source.
The target in experiment [3] is A2AR-Rluc (adenosine A2A receptor fused to Renilla luciferase) (human) (UniProt P29274).
In experiment [4] the target is D2R-Rluc (dopamine D2 receptor, long isoform, fused to Renilla luciferase) (human) (UniProt P14416).

Read-outs that look alike come from different tables or passages of the source.

Chain of UniProt P14416 (P14416 whole entry, the tested form may be a part, canonical isoform): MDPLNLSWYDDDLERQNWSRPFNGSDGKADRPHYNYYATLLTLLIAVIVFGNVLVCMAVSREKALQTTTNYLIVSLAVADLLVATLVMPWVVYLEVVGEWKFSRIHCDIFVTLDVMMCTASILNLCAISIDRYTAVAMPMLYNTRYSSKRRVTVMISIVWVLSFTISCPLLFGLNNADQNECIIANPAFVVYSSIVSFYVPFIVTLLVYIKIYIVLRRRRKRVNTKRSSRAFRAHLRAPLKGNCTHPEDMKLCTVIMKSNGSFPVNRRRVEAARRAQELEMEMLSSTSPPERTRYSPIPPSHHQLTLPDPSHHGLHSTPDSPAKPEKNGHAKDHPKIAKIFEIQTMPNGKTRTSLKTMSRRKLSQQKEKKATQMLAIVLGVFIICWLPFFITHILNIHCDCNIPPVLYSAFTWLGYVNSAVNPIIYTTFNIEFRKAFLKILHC

For the substance “NCS-1-YFP (neuronal calcium sensor 1 fused to yellow fluorescent protein) (from UniProt P62166 1-190) (natural protein)”, the SRET50 in experiment [1] came to 24.1; in experiment [2], 8.9. The BRET50 was 42.4 in experiment [3] and 23.4 in experiment [4].
On to “calneuron-1-YFP (from UniProt Q9BXU9 1-261) (natural protein)”, for which the SRET50 in experiment [1] came to 38.5; in experiment [2], 25.1. Further, the BRET50 was 40.5 in experiment [3] and 25.7 in experiment [4].
